This note sets out measurements from patent US9732156B2, “Methods of treating rheumatoid arthritis using antibodies to matrix metalloproteinase 9” (Gilead Biologics, Inc., priority 2012, dated 2017).

In one data set the target is MMP9 (Homo sapiens, UniProt P14780). Kind of data set: Comparison of binding and inhibitory properties of anti-MMP9 antibodies. The note with it: AB0045 compared with AB0041.
Another data set deals with CD4+ T cell. Kind of data set: EpiScreen ex vivo human T cell activation assay (immunogenicity). The class given is cell-based. On the procedure:
The potential clinical immunogenicity of the chimeric MMP9 antibody AB0041 and the humanized MMP9 antibody AB0045 was assessed. An ex vivo human T cell activation assay, the EpiScreen (Antitope, Ltd., Cambridge, UK) was used. The T cell activation in the EpiScreen assay has been correlated to the antibody/protein therapeutic responses in patients. The response of CD4+ T cell in 20 healthy donors, representing a variety of HLA haplotypes, was examined. […] A positive control of KLH induced a response in 95% of the donors, with a magnitude of 6.34+/−2.77 (mean+/−standard deviation).

For data set [1], the system named is collagen-induced arthritis. Kind of data set: Collagen-induced arthritis (CIA) rat model of established disease. The class given is in vivo. On the procedure: This example provides additional characterizations of the animals in example 7 that were treated with either vehicle, AB0041 (in the rat model) or AB0046 (in the mouse model) at 2, 10, or 50 mg/Kg, Enbrel at 10 mg/Kg, or methotrexate (MTX) at 0.5 mg/Kg.
In addition to clinical scoring in Table 6 that was conducted in example 7, paw swelling, ankle diameter and body weights of the treated animals were measured. The measurements were conducted once a week before randomization and three times a week thereafter.
In addition, hind limbs were examined microscopically for soft-tissue changes (edema, tissue/vessel necrosis, inflammatory cell infiltration, and fibroplasias) and cartilage and bone changes (cartilage erosion, bone erosion, periosteal bone formation, synovitis, pannus formation, and joint destruction). […] The severity scores were based on global changes in each limb.
For anti-TNF-alpha scoring, the entire region of the limb anterior to the tarsal-metatarsal joint was scored. Anti-CD68 staining was evaluated using 3-4 images per limb of synovial membranes in the joints formed by the talus bone, with the scores of each membrane averaged and the value assigned as the overall inflammation score. […] Also, MMP9-expressing cells were identified as osteoclasts and cells of the monocyte/macrophage lineage.
Further, serum panel analyses of terminal serum samples were characterized using ELISA. […] AB0046 titers were measured in terminal serum samples.

The test system of another data set is adjuvant arthritis (AIA). Put plainly: Adjuvant-induced arthritis (AIA) rat model of established disease. The note with it: in vivo. An excerpt: The anti-MMP9 antibody, AB0041, was efficacious in treating both inflammation and joint damage in both adjuvant and collagen-induced arthritis (AIA, CIA) rat rheumatoid arthritis models of established disease.
Data set [2] deals with lipopolysaccharide (LPS)-induced animal death. Kind of data set: LPS-induced septicemia model. The class given is in vivo, rat. The note with it: after four days.
The nature of data set [3]: AB0041 serum levels by indirect binding ELISA in the MSS study. It counts as in vivo, rat. The note with it: Day 0 to Day 28; 50 mg/kg IV twice per week. On the procedure: Levels of AB0041 in rat serum were measured by an indirect binding ELISA. ELISA plates were coated with 2 μg/ml of […] in 50 mM sodium borate overnight at 4° C. The plates were blocked with 5% bovine serum albumin (BSA) in phosphate buffered saline, pH 7.4 (PBS) and washed with 0.05% Tween 20 in PBS (PBST). A standard curve was prepared by serially diluting AB0041 in PBST to generate a series ranging from 3,000 ng/ml to 1.5 ng/ml. Serum samples were diluted at least 1:100 in PBST then added to the pre-coated ELISA plate. After one-hour incubation, the plates were washed and polyclonal goat-anti mouse IgG-HRP detection antibody (Thermo Scientific, Fair Lawn, N.J.) was added to the plate at 1:10,000 dilution in 0.5% BSA/PBS. The plates were washed and signal was detected by addition of 3,3′,5,5′-tetramethylbenzidine (TMB) (Sigma Aldrich, St. Louis, Mo.) for 2 minutes. The reaction was stopped by addition of 1M hydrochloric acid (HCl) and absorbance at 450 nm was measured. AB0041 levels in serum were back-calculated using a four-parameter curve fit in the SoftMax software package (Molecular Devices).
(In general: ELISA stands for enzyme-linked immunosorbent assay.)

The next data set has as its system Lewis rats. The note with it: rat, in vivo.

MMP9, sequence (P14780 94-707, species assumed): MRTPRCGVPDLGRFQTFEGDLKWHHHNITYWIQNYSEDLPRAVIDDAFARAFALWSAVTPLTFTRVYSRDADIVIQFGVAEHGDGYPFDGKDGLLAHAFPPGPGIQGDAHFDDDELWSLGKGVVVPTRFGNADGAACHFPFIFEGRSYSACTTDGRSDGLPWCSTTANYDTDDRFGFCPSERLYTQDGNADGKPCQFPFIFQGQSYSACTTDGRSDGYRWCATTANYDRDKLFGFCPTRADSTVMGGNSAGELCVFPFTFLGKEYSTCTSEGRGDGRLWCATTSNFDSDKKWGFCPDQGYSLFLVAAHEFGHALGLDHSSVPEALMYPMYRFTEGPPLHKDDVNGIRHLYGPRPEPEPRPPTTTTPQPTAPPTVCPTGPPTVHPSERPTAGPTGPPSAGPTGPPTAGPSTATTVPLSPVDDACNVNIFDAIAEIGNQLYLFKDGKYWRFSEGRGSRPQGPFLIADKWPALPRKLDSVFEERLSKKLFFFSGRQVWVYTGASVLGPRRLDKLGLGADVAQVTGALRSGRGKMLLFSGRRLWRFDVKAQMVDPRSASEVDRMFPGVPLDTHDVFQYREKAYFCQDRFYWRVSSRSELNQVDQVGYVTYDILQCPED
Protocol for Lewis rats: AB0041 was evaluated for safety in Lewis rats in comparison to the pan-MMP inhibitor, Marimastat, in a 28-day study.
Six rats per group were intravenously administered twice per week with either AB0041 at 50 mg/kg or Vehicle-A (10 mM sodium phosphate, pH 6.5, 140 mM sodium chloride, 0.01% Tween20). In addition, six rats per group were treated with Marimastat or Vehicle-M (50% DMSO/50% water) through a surgically implanted subcutaneous Alzet pump (Alzet, Cupertino, Calif.), which delivered at a rate of 2.5 μl/hour for a period of 28 days. The Marimastat release rate was between 6.8 to 5.7 mg/kg/day.
Animals were observed and scored daily for signs of MSS, such as reluctance to move and avoidance of the use of the hind feet. The following system was used to score resting posture, gait and willingness to move: resting posture was scored as 0 (normal), 1 (resting on one foot) or 2 (resting on neither one foot nor two feet). Gait was scored as either 0 (normal), 1 (avoids use of one hind foot) or 2 (avoids use of both hind feet). Willingness-to-move upon stimulation was scored as either 0 (normal movement), 1 (somewhat reluctant to move), 2 (moderately reluctant to move) or 3 (very reluctant to move). In addition, the body weights were recorded twice weekly.
Total scores were calculated as the sum of gait score, resting posture score and willingness-to-move score for each animal. Mean total scores per group were calculated as the average of the total scores from all individual animals per group per day.
Serum was collected from all rats on one day before and days 1, 7, 10, 14, 17, 21, 24, 28 post administration. Serum was centrifuged at 10,000×g for 10 minutes and collected for storage at −20° C. Serum was subject to multianalyte serum protein analysis (RodentMAPv2.0, IDEXX Laboratories).
Tissues and limbs from the rats were harvested and fixed in 10% neutral buffered formalin for histopathologic analysis using hematoxylin and eosin (H&E).

B1: AB0041: mouse monoclonal antibody to human MMP9, mouse IgG2b heavy chain (SEQ ID NO: 1) and mouse kappa light chain (SEQ ID NO: 2) (antibody, listed as Mus musculus)
heavy: MAVLVLFLCLVAFPSCVLSQVQLKESGPGLVAPSQSLSITCTVSGFSLLSYGVHWVRQPPGKGLEWLGVIWTGGTTNYNSALMSRLSISKDDSKSQVFLKMNSLQTDDTAIYYCARYYYGMDYWGQGTSVTVSSAKTTPPSVYPLAPGCGDTTGSSVTLGCLVKGYFPESVTVTWNSGSLSSSVHTFPALLQSGLYTMSSSVTVPSSTWPSQTVTCSVAHPASSTTVDKKLEPSGPISTINPCPPCKECHKCPAPNLEGGPSVFIFPPNIKDVLMISLTPKVTCVVVDVSEDDPDVRISWFVNNVEVHTAQTQTHREDYNSTIRVVSALPIQHQDWMSGKEFKCKVNNKDLPSPIERTISKIKGLVRAPQVYILPPPAEQLSRKDVSLTCLVVGFNPGDISVEWTSNGHTEENYKDTAPVLDSDGSYFIYSKLDIKTSKWEKTDSFSCNVRHEGLKNYYLKKTISRSPGK
light: MESQIQVFVFVFLWLSGVDGDIVMTQSHKFMSTSVGDRVSITCKASQDVRNTVAWYQQKTGQSPKLLIYSSSYRNTGVPDRFTGSGSGTDFTFTISSVQAEDLAVYFCQQHYITPYTFGGGTKLEIKRADAAPTVSIFPPSSEQLTSGGASVVCFLNNFYPKDINVKWKIDGSERQNGVLNSWTDQDSKDSTYSMSSTLTLTKDEYERHNSYTCEATHKTSTSPIVKSFNRNEC
modifications: CHAIN (1)...(470) AB0041 heavy chain; CHAIN (1)...(234) AB0041 light chain
With B1, the “binding and inhibitory properties” value in the data set with MMP9 is “equivalent binding and inhibitory properties”. For the same molecule, the “donors in which a response was induced” value in the data set on CD4+ T cell (CD4+ T cell response, 20 healthy donors of various HLA haplotypes) is listed as 20%. The magnitude of response in the data set with CD4+ T cell (mean+/−standard deviation) is 2.29+/−0.36. Further, in data set [1] (50 mg/kg), the “soft tissue disease, joint damage and destruction (histology)” value was “reduced all measures of soft tissue diseases, joint damage and destruction”. In data set [1] (50 mg/kg, compared to vehicle), the “CD68 score by IHC” value is reported as “significant reduction” and the “TNF-alpha score by IHC” value is “significant reduction”. For the same molecule, the arthritis clinical scores result in data set [1] (50, 10 and 2 mg/kg twice per week (4 doses)) was “reduced arthritis clinical scores”. The “qualitative and quantitative measurements of clinical disease (paw swelling, ankle diameter, body weight)” value in data set [1] (all doses (2, 10, 50 mg/Kg)) is listed as “significant reversal/mitigation”. Moreover, the “serum levels of TNFα, IL-6 and IL-17A” value in data set [1] (end of study) is reported as “efficacious in reducing serum levels”. The “serum markers (TIMP-1, GM-CSF, MIP-2, MIP-1β, M-CSF-1, OSM, CXCL10, MCP-5, IL-12p70, INF-γ, IL-12, IL-7)” value in data set [1] (terminal serum, ELISA) is reported as “statistically significant reduction”. For the same molecule, the “inflammation and joint damage” value with adjuvant arthritis (AIA) is “efficacious”. Moreover, in data set [2], the animals surviving is 70%. Moreover, in data set [3], the “mean steady-state serum levels” value lay in the range of 2 to 4 mg/mL. In addition, in the data set with Lewis rats, the “H&E staining of hind knee joints” value is given as “No synovitis or fibrosis was observed”; the “average MSS score” value is “zero”; the “histopathology of primary organs (H&E)” value was “No treatment-related abnormalities were observed”; the “rats with slight limping, avoidance of one hind foot (gait score=1)” value is given as “No symptoms were detected”. Also, the serum chemistry panel result in the data set on Lewis rats was “within normal ranges”. Besides, the “signs of MSS” value with Lewis rats (iv, 50 mg/kg) was “No signs of MSS”.
